Experimental data published in patent US20200339648A1 (University of Washington, published 2020).
Residue numbers refer to the chain shown, from its start.

B1: G2_neo2_40_1F_seq29_S6 (designed binder)
chain: EDYYSNLKLILEELAREMERNGLSDKAEEWRQWKKIVERIRQIRSNNSDLNEAKELLNRLITYIQSQIFEVLHGVGETDQEKKEESWKKWDLLLEHALLDVLMLLND
B2: G2_neo2_40_1F_seq29_S7 (designed binder)
chain: B1 chain with L9V, R59E, L72I, H73E, G74R, V75E, D91E, L93H
B3: G2_neo2_40_1F_seq36_S12 (designed binder)
chain: PKKKIQLLAEHALFDLLMILNIVKTNSQNAEEKLEDYAYNAGVILEEIARLFESGDQKDEAEKAKRMKEWMKRIKDTASEDEQEEMANEIITILQSWNFS
B4: G1_neo2_40 (designed binder)
chain: STKKLQLQAEHALLDAQMMLNRSPEPNEKLNRIITTMQSWISTGKIDLDGAKELAKEVEELRQEAEKRGIDVRDLASNLKVILLELA
notes: also called G1_ne02_40
B5: G1_neo2_41 (designed binder)
chain: B4 chain with W40C, I46C
notes: Single-disulfide stapled variation; In yeast display between Aga2 and a myc tag; also called G1_ne02_41
B6: G1_neo2_43 (designed binder)
chain: STKKIQLQLEHALLDVQMALNRSPEPNESLNRMITWLQSCISTGKCDLDNAQEMAKEAEKIRKEMEKRGIDVRDLISNIIVILLELS
notes: Single-disulfide stapled variation; In yeast display between Aga2 and a myc tag; also called G1_ne02_43
B7: G1_neo2_44 (designed binder)
chain: B6 chain with C40W, C46I, A55C, I80C
B8: Neoleukin-2/15 internal disulfide variant (disulfide between residues 38 and 75) (designed binder)
chain: PKKKIQLHAEHALYDALMILNIVKTNSPPAEEKLEDYCFNFELILEEIARLFESGDQKDEAEKAKRMKEWMKRICTTASEDEQEEMANAIITILQSWIFS
modifications: disulfide bond between the cysteines at residues 38 and 75
notes: also called internal disulfide-staple
B9: Neoleukin-2/15 terminal disulfide variant (CNSN and NFQC added at the termini) (designed binder)
chain: CNSNKKKIQLHAEHALYDALMILNIVKTNSPPAEEKLEDYAFNFELILEEIARLFESGDQKDEAEKAKRMKEWMKRIKTTASEDEQEEMANAIITILQSWIFNFQC
modifications: disulfide bond between the N-terminal and the C-terminal cysteine
notes: also called external disulfide-staple
B10: G2_neo2_40_1F_seq27_S18 (designed binder)
chain: TNKEAQLHAEFALYDALMLLNLSSESNERLNRIITWLQSIIFYETYDPDMVKEAVKLADEIEDEMRKRKIDTEDYVVNLRLILQELA
B11: G2_neo2_40_1F_seq27_S22 (designed binder)
chain: B10 chain with N2K, E4D, Q6E, H8L, R32E, E44G, K69G, V77S
B12: G1_neo2_35 (designed binder)
chain: STKKWQLQAEHALLDWQMALNKSPEPNENLNRAITAAQSWISTGKIDCDKAEDIRRNSDQARREAEKRGIDVRDLISNAQVILLEAC

What was measured:
[1] = target: mouse IL-2 receptor βγc heterodimer (mIL-2Rβγc), soluble (mouse) (UniProt P16297); experiment: SPR, equilibrium titration; IL-2Rγ on streptavidin chip, saturating IL-2Rβ in solution
[2] = target: human IL-2 receptor βγc heterodimer (hIL-2Rβγc), soluble (human) (UniProt P14784); experiment: as above
[3] = target: human IL-2Rβγc on human cells (YT-1 NK cells) (human) (UniProt P14784); experiment: cell-based or functional assay
[4] = target: T1, mouse IL-2 receptor β subunit (mIL-2Rβ) (mouse, UniProt P16297 27-240, biotin on the C-terminal biotin acceptor peptide); experiment: SPR, equilibrium titration; biotinylated IL-2Rβ on streptavidin chip
T1 construct: extracellular domain; Biotinylated form for SPR; also called MmIL-2Rβ; murine IL-2Rβ
T1 sequence: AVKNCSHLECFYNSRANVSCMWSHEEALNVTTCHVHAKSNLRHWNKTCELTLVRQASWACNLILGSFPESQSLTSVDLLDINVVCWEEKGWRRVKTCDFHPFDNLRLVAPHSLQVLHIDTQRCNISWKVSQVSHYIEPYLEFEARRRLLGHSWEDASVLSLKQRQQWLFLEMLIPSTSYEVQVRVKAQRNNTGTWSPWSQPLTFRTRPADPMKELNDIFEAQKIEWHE
Experimental: (§1) Less than 100 response units (RU) of each ligand was immobilized to minimize mass transfer effects. […] Surface regeneration for all interactions was conducted using 15 s exposure to 1 M MgCl2 in 10 mM sodium acetate pH 5.5. SPR experiments were carried out in HBS-P+ buffer (GE Healthcare) supplemented with 0.2% bovine serum albumin (BSA) at 25° C. and all binding studies were performed at a flow rate of […] to prevent analyte rebinding. Data was visualized and processed using the Biacore T100 evaluation software version 2.0 (GE Healthcare). Equilibrium titration curve fitting and equilibrium binding dissociation (KD) value determination was implemented using GraphPad Prism assuming all binding interactions to be first order. Biolayer interferometry: binding data were collected in a Octet RED96 (ForteBio, Menlo Park, Calif.) and processed using the instrument's integrated software using a 1:1 binding model. […] Analyte proteins were diluted from concentrated stocks into binding buffer. After baseline measurement in binding buffer alone, the binding kinetics were monitored by dipping the biosensors in wells containing 100 nM of the designed protein (association) and then dipping the sensors back into baseline wells (dissociation).

[5] = target: T2, human IL-2 receptor β subunit (hIL-2Rβ) (human, UniProt P14784 27-240, biotin on the C-terminal biotin acceptor peptide); experiment: as above
T2 construct: Biotinylated and immobilised on streptavidin; also called HsIL-2Rβ; human IL-2Rβ
T2 sequence: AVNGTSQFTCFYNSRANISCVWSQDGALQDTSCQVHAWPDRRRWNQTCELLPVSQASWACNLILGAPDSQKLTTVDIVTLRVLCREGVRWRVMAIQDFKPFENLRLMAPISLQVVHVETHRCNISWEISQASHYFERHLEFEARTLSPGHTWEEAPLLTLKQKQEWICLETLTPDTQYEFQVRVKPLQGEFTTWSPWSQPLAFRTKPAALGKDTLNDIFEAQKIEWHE
Experimental: as §1

[6] = target: T3, human IL-2 receptor βγc heterodimer (hIL-2Rβγc), soluble (human, UniProt P14784 27-240; P31785 23-254, biotin on the C-terminal biotin acceptor peptide); experiment: affinity maturation by yeast display for human and mouse IL-2Rβνc
T3 construct: also called HsIL-2Rβγc; hIL-2Rβνc
T3 sequence 1: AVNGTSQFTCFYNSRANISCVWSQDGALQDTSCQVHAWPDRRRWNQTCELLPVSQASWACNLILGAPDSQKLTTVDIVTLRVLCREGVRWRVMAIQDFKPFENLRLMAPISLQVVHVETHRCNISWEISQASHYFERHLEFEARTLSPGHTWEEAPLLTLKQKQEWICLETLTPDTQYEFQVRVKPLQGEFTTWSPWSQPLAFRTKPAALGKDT
T3 sequence 2: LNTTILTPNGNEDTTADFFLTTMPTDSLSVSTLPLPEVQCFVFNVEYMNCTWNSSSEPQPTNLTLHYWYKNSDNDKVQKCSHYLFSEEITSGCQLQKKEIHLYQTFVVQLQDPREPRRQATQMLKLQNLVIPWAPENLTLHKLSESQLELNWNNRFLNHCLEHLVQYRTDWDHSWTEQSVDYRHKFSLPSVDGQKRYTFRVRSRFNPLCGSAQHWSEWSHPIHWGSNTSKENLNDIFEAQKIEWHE
Experimental: (§2) The vector was linearized by 100 fold overdigestion by NdeI and XhoI (New England Biolabs) and then purified by gel extraction (Qiagen). The genes included 50 bases of overlap with the vector on both the 5′ and 3′ ends such that homologous recombination would place the genes in frame between the AGA2 gene and the myc tag on the vector. Yeast were grown in C-Trp-Ura media prior to induction in SGCAA media as previously described. […] After approximately 30 minutes, cells were washed again in chilled buffer, and then incubated on ice for 5 minutes with FITC-conjugated anti-c-Myc antibody (1 uL per 3×10⁶ cells) and streptavidin-phycoerythrin (1 uL per 100 uL volume of yeast). Yeast were then washed and counted by flow cytometry (Accuri C6) or sorted by FACS (Sony SH800).

[7] = target: T4, mouse IL-2 receptor βγc heterodimer (mIL-2Rβγc), soluble (mouse, UniProt P16297 27-240; P34902 23-263, biotin on the C-terminal biotin acceptor peptide); experiment: as above
T4 construct: extracellular domain; also called MmIL-2Rβγc; mIL-2Rβνc
T4 sequence 1: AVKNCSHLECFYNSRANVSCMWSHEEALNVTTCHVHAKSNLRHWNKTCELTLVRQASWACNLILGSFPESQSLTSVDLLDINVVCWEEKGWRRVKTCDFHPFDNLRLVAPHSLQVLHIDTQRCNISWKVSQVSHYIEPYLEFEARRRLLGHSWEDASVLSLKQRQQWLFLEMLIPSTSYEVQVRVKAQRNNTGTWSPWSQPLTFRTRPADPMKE
T4 sequence 2: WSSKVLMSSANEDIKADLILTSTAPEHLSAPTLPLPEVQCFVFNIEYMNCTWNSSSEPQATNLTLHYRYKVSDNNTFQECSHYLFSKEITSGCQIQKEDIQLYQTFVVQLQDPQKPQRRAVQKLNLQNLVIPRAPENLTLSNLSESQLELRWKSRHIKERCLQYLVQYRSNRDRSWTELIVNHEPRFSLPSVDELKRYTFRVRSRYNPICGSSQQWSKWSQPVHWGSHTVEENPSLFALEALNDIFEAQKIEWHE
Experimental: as §2

[8] = target: T5, human IL-2Rβγc on human cells (YT-1 NK cells) (human, UniProt P14784 27-551; P31785 23-369); experiment: cell-based or functional assay
T5 sequence (looked up) 1: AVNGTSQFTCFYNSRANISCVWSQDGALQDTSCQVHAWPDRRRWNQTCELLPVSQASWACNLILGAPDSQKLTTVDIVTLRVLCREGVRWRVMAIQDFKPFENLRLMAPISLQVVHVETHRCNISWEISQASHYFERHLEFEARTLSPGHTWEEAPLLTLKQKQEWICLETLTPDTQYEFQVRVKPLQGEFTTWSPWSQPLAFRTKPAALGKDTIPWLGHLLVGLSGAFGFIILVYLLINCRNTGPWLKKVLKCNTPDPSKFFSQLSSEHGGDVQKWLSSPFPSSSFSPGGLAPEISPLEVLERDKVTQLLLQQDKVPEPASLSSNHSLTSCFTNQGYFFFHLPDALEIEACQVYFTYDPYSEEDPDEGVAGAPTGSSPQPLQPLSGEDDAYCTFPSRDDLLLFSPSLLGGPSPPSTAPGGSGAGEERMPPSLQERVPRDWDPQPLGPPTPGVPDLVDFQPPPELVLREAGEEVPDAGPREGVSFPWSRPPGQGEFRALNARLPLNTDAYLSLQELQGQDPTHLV
T5 sequence (looked up) 2: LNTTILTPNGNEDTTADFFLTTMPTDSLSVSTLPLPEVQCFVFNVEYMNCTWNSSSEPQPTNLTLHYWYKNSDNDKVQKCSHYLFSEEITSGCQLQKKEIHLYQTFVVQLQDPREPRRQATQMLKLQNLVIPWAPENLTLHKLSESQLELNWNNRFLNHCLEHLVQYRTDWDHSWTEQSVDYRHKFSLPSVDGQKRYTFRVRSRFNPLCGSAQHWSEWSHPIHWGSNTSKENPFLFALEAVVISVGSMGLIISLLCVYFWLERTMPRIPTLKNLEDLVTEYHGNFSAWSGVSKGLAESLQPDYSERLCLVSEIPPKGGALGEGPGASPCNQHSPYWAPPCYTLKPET

[9] = target: T3, human IL-2 receptor βγc heterodimer …; experiment: SPR, equilibrium titration; IL-2Rγ on streptavidin chip, saturating IL-2Rβ in solution
Experimental: as §1

[10] = target: T6, fluorescently labeled chimeric hIL-2Rβγc (human, UniProt P14784 27-240; P31785 23-254); experiment: yeast display, flow cytometry
T6 construct: How beta and gamma are joined and labeled is not described; also called fluorescently-tagged beta-gamma chimeric IL-2 receptor; chimeric ILRβγc
T6 sequence (looked up) 1: T3 sequence 1
T6 sequence (looked up) 2: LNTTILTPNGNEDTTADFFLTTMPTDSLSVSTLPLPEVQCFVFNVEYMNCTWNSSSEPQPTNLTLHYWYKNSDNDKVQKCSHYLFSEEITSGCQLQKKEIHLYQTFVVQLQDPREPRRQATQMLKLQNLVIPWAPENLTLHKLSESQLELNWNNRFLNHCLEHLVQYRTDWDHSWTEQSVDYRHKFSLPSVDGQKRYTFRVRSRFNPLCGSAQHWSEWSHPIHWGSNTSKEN

[11] = target: T7, IL-2Rβγc (species not stated); experiment: biolayer interferometry
T7 chain 1: T3 sequence 1
T7 chain 2: T6 sequence (looked up) 2

Molecule	Kd [5]	binding result [6]	binding result [7]	other results
Super-2/Superkine (PDB: 3QAZ) (ligand)	2 nM	–	–	Kd [1]: 312 nM; Kd [2]: 301 nM; EC50 (CD25-) pSTAT5p, human NK (YT, CD25-) cells [3]: 0.07 nM; Kd [4]: 214 nM
B1	–	binds	binds	–
B2	–	binds	binds	–
B3	–	binds	binds	–
B4	1460 nM	–	–	EC50 (CD25-) pSTAT5p, human NK (YT, CD25-) cells [8]: 0.14 nM; Kd [9]: 260 nM
B5	721 nM	–	–	EC50 (CD25-) pSTAT5p, human NK (YT, CD25-) cells [8]: 0.07 nM; Kd [9]: 187 nM
B6	2860 nM	–	–	EC50 (CD25-) pSTAT5p, human NK (YT, CD25-) cells [8]: 0.21 nM; Kd [9]: 533 nM
B7	–	–	–	binding result [10]: no binding (tested: 2 nM)
B8	–	–	–	Kd [11]: ~1.3 nM
B9	–	–	–	Kd [11]: ~1.8 nM
B10	–	binds	binds	–
B11	–	binds	binds	–
B12	–	–	–	binding result [10]: no binding (tested: 2 nM)
